How the values were obtained:
GST-TDP-43 (7-414) [1] = molecular target: T1, GST-TDP-43 (7-414) (Homo sapiens, UniProt Q13148 SEQ:7-414); assay: competition; up to 50x excess did not significantly compete; listed as -46/-13 in Example 8; conditions: tags: N-terminal GST
GST-TDP-43 (7-414) [2] = molecular target: T1, GST-TDP-43 (7-414); assay: competition; up to 50x excess did not significantly compete; conditions: tags: N-terminal GST
[3] = molecular target: T2, TDP-43 full length (thrombin-cleaved) (Homo sapiens, UniProt Q13148 SEQ:1-414); assay: UV crosslinking; conditions: tags: GST removed by thrombin
GST-TDP-43 (7-414) [4] = molecular target: T1, GST-TDP-43 (7-414); assay: competition; up to 50x excess did not compete; conditions: tags: N-terminal GST
[5] = molecular target: T2, TDP-43 full length (thrombin-cleaved); assay: UV crosslinking, 43 and 86 kDa species, 160 or 800 ng protein; conditions: tags: GST removed by thrombin; label: 32P
GST-TDP-43 (7-414) [6] = molecular target: T1, GST-TDP-43 (7-414); assay: EMSA; 50 mM KCl, 5 mM MgCl2, room temperature; competed by 5-50x unlabeled WT; conditions: tags: N-terminal GST; label: 32P
GST-TDP-43 (7-333) = GST-TDP-43 (7-333) (Homo sapiens, UniProt Q13148 SEQ:7-333); assay: EMSA; glycine-rich domain truncation; bound like wild type; conditions: tags: N-terminal GST; label: 32P
GST-TDP-43 (7-198) = GST-TDP-43 (7-198) (Homo sapiens, UniProt Q13148 SEQ:7-198); assay: EMSA; part of RNP domain deleted; still bound; conditions: tags: N-terminal GST; label: 32P
GST-TDP-43 (7-240) = GST-TDP-43 (7-240) (Homo sapiens, UniProt Q13148 SEQ:7-240); assay: EMSA; glycine-rich domain deleted; bound like wild type; conditions: tags: N-terminal GST; label: 32P
GST-TDP-43 (7-166) = GST-TDP-43 (7-166) (Homo sapiens, UniProt Q13148 SEQ:7-166); assay: EMSA; only first RNP-1 retained; bound, affinity higher when both RNP1 and RNP2 present; conditions: tags: N-terminal GST; label: 32P
[7] = molecular target: T2, TDP-43 full length (thrombin-cleaved); assay: competition; 50x excess did not compete UV crosslinking; conditions: tags: GST removed by thrombin

T1 sequence (Q13148 7-414): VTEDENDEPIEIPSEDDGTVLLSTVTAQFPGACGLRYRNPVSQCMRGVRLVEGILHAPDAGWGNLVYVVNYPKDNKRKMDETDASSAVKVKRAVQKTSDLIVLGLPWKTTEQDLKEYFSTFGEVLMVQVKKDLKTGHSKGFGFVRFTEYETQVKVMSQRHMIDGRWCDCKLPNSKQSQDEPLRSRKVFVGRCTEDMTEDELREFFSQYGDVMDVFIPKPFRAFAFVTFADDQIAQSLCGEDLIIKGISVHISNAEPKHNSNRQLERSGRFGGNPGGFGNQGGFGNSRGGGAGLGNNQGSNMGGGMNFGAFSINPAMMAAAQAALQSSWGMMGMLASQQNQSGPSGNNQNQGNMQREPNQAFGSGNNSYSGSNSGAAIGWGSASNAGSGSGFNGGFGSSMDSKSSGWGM
T2 sequence (Q13148 whole entry): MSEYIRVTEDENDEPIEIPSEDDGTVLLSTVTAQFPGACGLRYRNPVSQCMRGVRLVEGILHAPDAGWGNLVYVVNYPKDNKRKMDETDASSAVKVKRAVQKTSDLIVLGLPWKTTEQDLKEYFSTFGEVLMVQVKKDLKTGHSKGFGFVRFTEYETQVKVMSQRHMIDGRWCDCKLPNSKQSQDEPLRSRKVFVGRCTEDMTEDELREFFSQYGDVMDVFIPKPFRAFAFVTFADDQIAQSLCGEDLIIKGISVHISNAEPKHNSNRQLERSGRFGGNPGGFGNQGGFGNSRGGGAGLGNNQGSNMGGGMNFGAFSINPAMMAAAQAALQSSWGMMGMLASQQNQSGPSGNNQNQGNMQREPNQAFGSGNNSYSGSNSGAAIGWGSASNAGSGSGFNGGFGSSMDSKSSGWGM
GST-TDP-43 (7-166), sequence (Q13148 7-166): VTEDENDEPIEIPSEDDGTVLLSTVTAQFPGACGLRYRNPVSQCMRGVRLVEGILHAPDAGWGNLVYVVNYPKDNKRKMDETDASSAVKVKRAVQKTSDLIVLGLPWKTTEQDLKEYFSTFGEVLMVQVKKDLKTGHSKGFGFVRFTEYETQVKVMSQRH
GST-TDP-43 (7-198), sequence (Q13148 7-198): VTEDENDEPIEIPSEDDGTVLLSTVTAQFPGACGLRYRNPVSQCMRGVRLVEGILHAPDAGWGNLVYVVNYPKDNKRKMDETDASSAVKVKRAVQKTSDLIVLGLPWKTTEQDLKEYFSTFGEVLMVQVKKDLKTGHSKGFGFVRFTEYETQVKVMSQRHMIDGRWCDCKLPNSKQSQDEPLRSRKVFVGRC
GST-TDP-43 (7-240), sequence (Q13148 7-240): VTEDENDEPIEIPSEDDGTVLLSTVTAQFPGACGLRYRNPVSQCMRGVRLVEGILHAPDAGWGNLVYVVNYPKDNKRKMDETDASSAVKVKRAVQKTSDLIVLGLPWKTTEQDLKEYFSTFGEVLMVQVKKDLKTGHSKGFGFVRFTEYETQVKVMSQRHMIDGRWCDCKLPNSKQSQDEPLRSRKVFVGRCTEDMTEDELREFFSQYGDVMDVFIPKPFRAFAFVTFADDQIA
GST-TDP-43 (7-333), sequence (Q13148 7-333): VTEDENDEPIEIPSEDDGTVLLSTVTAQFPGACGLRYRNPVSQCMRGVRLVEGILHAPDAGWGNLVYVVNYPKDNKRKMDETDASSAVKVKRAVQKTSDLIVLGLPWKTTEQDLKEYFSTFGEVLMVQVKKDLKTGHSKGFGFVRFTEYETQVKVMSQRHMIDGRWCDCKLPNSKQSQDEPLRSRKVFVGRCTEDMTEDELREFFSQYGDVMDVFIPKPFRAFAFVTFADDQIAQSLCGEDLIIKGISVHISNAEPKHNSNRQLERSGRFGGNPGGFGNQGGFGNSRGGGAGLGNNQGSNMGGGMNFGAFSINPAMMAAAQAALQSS

B1: HIV-1 LTR -45/-13 (dsDNA)
DNA 1: GCGTGCCTCAGATGCTGCATATAAGCAGCTGCTTT
DNA 2: AAAGCAGCTGCTTATATGCAGCATCTGAGGCACGC
B1: no binding (GST-TDP-43 (7-414) [1]).

B2: HIV-1 LTR -45/+1 (dsDNA)
DNA 1: GCGTGCCTCAGATGCTGCATATAAGCAGCAGCTGCTTTTTGCCTGTACT
DNA 2: AGTACAGGCAAAAAGCAGCTGCTGCTTATATGCAGCATCTGAGGCACGC
B2: no binding (GST-TDP-43 (7-414) [2]).

B3: HIV-1 LTR -18/+28 delta1 (dsDNA)
DNA 1: CTGACGTACGTACGTACTGGGTCTCTCTGGTTAGACCAGATCT
DNA 2: AGATCTGGTCTAACCAGAGAGACCCAGTACGTACGTACGTCAG
B3: no binding [3]; no binding (GST-TDP-43 (7-414) [4]).

B4: HIV-1 LTR -18/+28 delta2 (dsDNA)
DNA 1: CTGCTTTTTGCCTGTACGTACATGCGTACGTTAGACCAGATCT
DNA 2: AGATCTGGTCTAACGTACGCATGTACGTACAGGCAAAAAGCAG
B4: no binding [3]; no binding (GST-TDP-43 (7-414) [4]).

B5: HIV-1 LTR +10/+50 (dsDNA)
DNA 1: GGTTAGACCAGATCTGAGCCTGGGAGCTCTCTGGCTAACTAG
DNA 2: CTAGTTAGCCAGAGAGCTCCCAGGCTCAGATCTGGTCTAACC
B5: no binding (GST-TDP-43 (7-414) [2]).

B6: AdMLP TATA (dsDNA)
DNA 1: AAGGGGGGCTATAAAAGGGGGTGGGGG
DNA 2: CCCCCACCCCCTTTTATAGCCCCCCTT
B6: no binding (GST-TDP-43 (7-414) [4]).

B7: HIV-1 LTR -18/+28 (TAR DNA) WT (dsDNA)
DNA 1: CTGCTTTTTGCCTGTACTGGGTCTCTCTGGTTAGACCAGATCTGAG
DNA 2: CTCAGATCTGGTCTAACCAGAGAGACCCAGTACAGGCAAAAAGCAG
B7: binds [5]; binds (GST-TDP-43 (7-414) [6]); binds (GST-TDP-43 (7-333)). B7: binds (GST-TDP-43 (7-198)); binds (GST-TDP-43 (7-240)); binds (GST-TDP-43 (7-166)).

B8: HIV-1 LTR -18/+28 delta1+delta2 (dsDNA)
DNA 1: CTGACGTACGTACGTACGTACATGCGTACGTTACGGACCATCT
DNA 2: AGATGGTCCGTAACGTACGCATGTACGTACGTACGTACGTCAG
B8: no binding (GST-TDP-43 (7-414) [4]); no binding [7].

Source: patent publication US5688511, “Cellular protein TDP-43 and regulation of HIV-1 gene expression” (Board of Regents, The University of Texas System)
